In PMC10932818 (Cancer immunology research, 2024):

Molecular target: recombinant Fc-tagged extracellular domain of LILRB3 (LILRB3-ECD) (human, UniProt O75022 24-443, glycosylated (production from mammalian NS0 cells))
Assay: BLI

recombinant Fc-tagged extracellular domain of LILRB3 (LILRB3-ECD), sequence (O75022 24-443): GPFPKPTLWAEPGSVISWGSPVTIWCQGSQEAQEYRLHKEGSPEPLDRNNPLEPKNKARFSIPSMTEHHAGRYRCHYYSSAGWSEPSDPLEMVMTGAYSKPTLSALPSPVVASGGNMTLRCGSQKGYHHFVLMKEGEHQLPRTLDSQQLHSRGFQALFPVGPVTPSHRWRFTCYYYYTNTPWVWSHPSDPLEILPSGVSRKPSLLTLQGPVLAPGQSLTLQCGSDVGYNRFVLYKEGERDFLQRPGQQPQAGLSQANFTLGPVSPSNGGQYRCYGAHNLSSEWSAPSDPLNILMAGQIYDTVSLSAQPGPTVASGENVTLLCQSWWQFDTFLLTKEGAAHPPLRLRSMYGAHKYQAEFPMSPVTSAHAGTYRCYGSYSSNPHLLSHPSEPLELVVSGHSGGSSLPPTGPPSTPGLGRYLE

B1: recombinant human galectin-4 (Galectin-4-His) (natural protein, UniProt P56470 1-323, looked up)
chain: MAYVPAPGYQPTYNPTLPYYQPIPGGLNVGMSVYIQGVASEHMKRFFVNFVVGQDPGSDVAFHFNPRFDGWDKVVFNTLQGGKWGSEERKRSMPFKKGAAFELVFIVLAEHYKVVVNGNPFYEYGHRLPLQMVTHLQVDGDLQLQSINFIGGQPLRPQGPPMMPPYPGPGHCHQQLNSLPTMEGPPTFNPPVPYFGRLQGGLTARRTIIIKGYVPPTGKSFAINFKVGSSGDIALHINPRMGNGTVVRNSLLNGSWGSEEKKITHNPFGPGQFFDLSIRCGLDRFKVYANGQHLFDFAHRLSAFQRVDTLEIQGDVTLSYVQI
- Kd: 44 nM
